The results in this text go back to patent publication US20260021193A1 (IMMUNOME, published 2026).

In test [1] the target is T1, human ROR-1 endogenously expressed on JeKo-1 and MDA-MB-468 cells (human, UniProt Q01973 30-937). The test can be described thus: cell-based or functional assay.
The target in test [2] is T1, human ROR-1 endogenously expressed on …. The test can be described thus: flow cytometry: titration of the antibody on ROR-1 positive JeKo-1 cells, secondary antibody staining, Net MFI. As for the experimental part:
Cells were washed, stained with secondary antibody and cell binding saturation was detected by flow cytometry and reported as mean fluorescent intensity (MFI).
A cell binding saturation assay was developed to evaluate how well the anti-ROR-1 antibodies developed in Example 22 bound to endogenously expressed extracellular ROR-1 protein on cell lines. […] Cells were then washed and subjected to secondary antibody staining and detection by flow cytometry. Mean fluorescence (MFI) was determined by analysis on cytometer software. […] (See FIGS. 27A-27B).

Test [3] has the same target. Kind of test: flow cytometry (cellular binning): titration of the antibody on MDA-MB-468 cells, fluorescently labeled secondary antibody, % Top MFI. As for the experimental part:
(§1) Next, the anti-ROR-1 antibodies were fluorescently labeled with a secondary antibody.
(§2) In Step 2, a fluorescently labeled secondary antibody recognizing the novel antibodies was incubated with the samples.
Background: Flow cytometry measures light scatter and fluorescence of single cells or particles in a stream.

Test [4] has the same target. Kind of test: cell-based or functional assay. The source holds these as a separate data set.
Test [5] has the same target. Kind of test: flow cytometry competition (cellular binning) on MDA-MB-468 cells: cells coated with titrated ATX-P-885, then a saturating dose of the labeled competitor Dy650-UC961, whose signal is plotted in % Top MFI. How it is done: as §1, §2
The next test concerns the target T2, Mouse ROR1 - His (Mouse, UniProt Q9Z139 30-403, limits assumed).
T2 construct: Purified His-tagged mouse ROR1 protein used in SPR; not shown: His tag
The test can be described thus: SPR, purified Mouse ROR1-His. Background: SPR reads the build-up and loss of mass on a sensor chip optically.

Test [6] deals with T3, Hu/Cy/Rh ROR1 - His (Human/Cyno/Rhesus, UniProt Q01973 30-403, limits assumed).
T3 construct: Purified His-tagged ROR1 protein used in SPR; also called Human/Cyno/Rhesus ROR-1; not shown: His tag
The test can be described thus: SPR, purified Hu/Cy/Rh ROR1-His.

Test [7] concerns the target T1, human ROR-1 endogenously expressed on …. The test can be described thus: flow cytometry (cellular binning): titration of the antibody on MDA-MB-468 cells, fluorescently labeled secondary antibody, % Top MFI. As for the experimental part: as §1, §2
The source holds these as a separate data set.

Test [8] shares this target. Kind of test: flow cytometry: titration of the antibody on ROR-1 positive JeKo-1 cells, secondary antibody staining, Net MFI. The source holds these as a separate data set.
In test [9] the target is T3, Hu/Cy/Rh ROR1 - His. The test can be described thus: SPR (Carterra), cell 'Kinetics (KD)' in the head and in the left column of the binning table, antigen Hu/Cy/Rh ROR1-His; no unit stands on the sheet, M is taken from Table 3, where the same KD values of the other four antibodies stand under KD (M).
Test [10] has as its target T1, human ROR-1 endogenously expressed on …. Kind of test: flow cytometry competition (cellular binning) on MDA-MB-468 cells: cells coated with titrated ATX-P-875, then a saturating dose of the labeled competitor 4A5-PE, whose signal is plotted in % Top MFI. How it is done: as §1, §2
Test [11] shares this target. Kind of test: flow cytometry (cellular binning): titration of the antibody on MDA-MB-468 cells, fluorescently labeled secondary antibody, % Top MFI. How it is done: as §1, §2
The source holds these as a separate data set.

The EC50 (read off the curve) is the concentration needed to bring the measured effect to its halfway point. Read a high EC50 (read off the curve) as lower potency in that assay. For orientation: Kd means the concentration at which binding is half-saturated. Read a low Kd as a tighter complex. What is called koff is the first-order rate constant of dissociation. As usually defined, the kon is a measure of how fast the partners come together. Read a low kon as slower complex formation.

T2 sequence (Q9Z139 30-403 limits assumed): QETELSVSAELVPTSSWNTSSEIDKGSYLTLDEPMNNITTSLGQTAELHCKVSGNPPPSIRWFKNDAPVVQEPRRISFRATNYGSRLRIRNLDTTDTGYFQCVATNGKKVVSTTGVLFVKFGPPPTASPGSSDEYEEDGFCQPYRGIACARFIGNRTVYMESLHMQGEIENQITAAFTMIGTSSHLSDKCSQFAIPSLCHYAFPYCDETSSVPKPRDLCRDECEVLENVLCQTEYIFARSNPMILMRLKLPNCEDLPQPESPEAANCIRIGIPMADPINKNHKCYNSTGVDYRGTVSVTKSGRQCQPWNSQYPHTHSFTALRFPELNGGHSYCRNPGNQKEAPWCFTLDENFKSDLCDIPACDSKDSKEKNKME

B1: ATX-P-885 (antibody, V domains shown)
VH: QVQLQQWGAGLLKPSETLSLTCAVYGGSFSGYYWSWIRQPPGKGLEWIGEINHSGSTNYNPSLKSRVTISVDTSKNQFSLKLSSVTAADTAVYYCAREGVYEDYWGQGTLVTVSS
VL: EIVLTQSPATLSLSPGERATLSCRASQSVSNYLAWYQQKPGQAPRLLIYDAYNRATGIPARFSGSGSGTDFTLTISSLEPEDFAVYYCQQRSNWPLTFGQGTRLEIKR
For B1, in test [1], the “ROR-1 receptor internalization on JeKo-1 and MDA-MB-468 cells (reduction of surface antibody over 4 hours, flow cytometry)” value was at least 75%. In test [2], the concentration giving a half-maximal response (EC50 (read off the curve)) is around 0.3 nM. Further, in [3], the 50% effective concentration (EC50 (read off the curve)) is around 3 nM. For the same molecule, in test [4], the “JeKo-1 (%) cellular internalization” value amounted to 75% and the “MDA-MB-468(%) cellular internalization” value is 89%. For the same molecule, the “IC50 (read off the curve)” value in test [5] is around 3 nM. In the test with Mouse ROR1 - His, this molecule yielded a dissociation constant (Kd) of 45.3 nM, a koff of 0.00132 s⁻¹ and a kon of 29200 M⁻¹ s⁻¹. In the test with Hu/Cy/Rh ROR1 - His [6], this molecule registered a Kd of 10.9 nM, a koff of 0.00295 s⁻¹ and a kon of 270000 M⁻¹ s⁻¹. Moreover, in test [7], the concentration giving a half-maximal response (EC50 (read off the curve)) is around 2 nM.

B2: UC-961 (ATX-P-453) (antibody, V domains shown)
VH: QVQLQESGPGLVKPSQTLSLTCTVSGYAFTAYNIHWVRQAPGQGLEWMGSFDPYDGGSSYNQKFKDRLTISKDTSKNQVVLTMTNMDPVDTATYYCARGWYYFDYWGHGTLVTVSS
VL: DIVMTQTPLSLPVTPGEPASISCRASKSISKYLAWYQQKPGQAPRLLIYSGSTLQSGIPPRFSGSGYGTDFTLTINNIESEDAAYYFCQQHDESPYTFGEGTKVEIK
For B2, the “EC50 (read off the curve)” value in [2] was around 0.1 nM. For the same molecule, in test [4], the “JeKo-1 (%) cellular internalization” value is 75% and the “MDA-MB-468(%) cellular internalization” value amounted to 80%. In the test with Hu/Cy/Rh ROR1 - His [6], binding was characterised by a dissociation constant (Kd) of 4.69 nM, the koff worked out at 0.00591 s⁻¹ and the kon came out at 1.26e+06 M⁻¹ s⁻¹. Moreover, in test [8], the “EC50 (read off the curve)” value was around 0.02 nM.

B3: 4A5 (antibody, V domains shown)
VH: EVKLVESGGGLVKPGGSLKLSCAASGFTFSSYAMSWVRQIPEKRLEWVASISRGGTTYYPDSVKGRFTISRDNVRNILYLQMSSLRSEDTAMYYCGRYDYDGYYAMDYWGQGTSVTVSS
VL: DIKMTQSPSSMYASLGERVTITCKASPDINSYLSWFQQKPGKSPKTLIYRANRLVDGVPSRFSGGGSGQDYSLTINSLEYEDMGIYYCLQYDEFPYTFGGGTKLEMK
On to B3, for which binding with Hu/Cy/Rh ROR1 - His [9] was put at a Kd of 2.81 nM.

B4: ATX-P-875 (antibody, V domains shown)
VH: not shown
VL: DIQMTQSPSSLSASVGDRVTITCRASQSISSYLNWYQQKPGKAPKLLIYAASSLQSGVPSRFSGSGSGTDFTLTISSLQPEDFATYYCQQYDNLPITFGQGTRLEIKR
As for B4, in test [1], the “ROR-1 receptor internalization on JeKo-1 and MDA-MB-468 cells (reduction of surface antibody over 4 hours, flow cytometry)” value was at least 75%. Moreover, in test [3], the “EC50 (read off the curve)” value was around 0.9 nM. Moreover, the “IC50 (read off the curve)” value in test [10] was around 0.7 nM. In [4], the “JeKo-1 (%) cellular internalization” value was 75% and the “MDA-MB-468(%) cellular internalization” value came to 89%. In addition, the “EC50 (read off the curve)” value in [11] is around 0.5 nM.
